Assay results as given in a protein production outcome set (Wang et al. 2014).

Assay: label from the status in PepcDB records
With “MINGNTSGLKEYILENLDKLYSTKIEKGKIINQEIVDYISEISNKINREINVAIDRNGNIIDISIGDSSTVNLPVIPVYDKKLSGVRIIHTHPSGNPHLSSVDISALIKLKLDCIVSIGVSEEGVTGYEVAICSIVNDELTYDRTLLENLDDFDYLEEIKEVEENLRKRNITEDDKEYALLIGIDKEEYLDELEELASACDVKVVGRFFQKRSKPDPLFLIGSGKIQELALTRQVRKVNLLIFDEELSGLQLKMIEEVTGCKVIDRTTLILEIFARRARTREAKLQVELAQLKYRSNRLIGFGVTMSRLGGGVGTKGPGEKKLEIDRRVIKKTIAYLNNELENIKKIRNTQRSKREDSGMPRVSLVGYTNVGKSTLRNVLVDMYQNDKTLKKEEVLSQDMLFATLDTTTRTIELKDKRIVSLTDTVGFIQKLPHDLVESFKSTLEEVIFSDLIIHVADISSKNVIEQIDAVEDVLEELNCLDKTKILLLNKIDNVTKDNSFPLMEKKIEEIKAKYSNYQILIISAKNRFNIDELMELIKKNLIVKTYNCKLLIPYVNTEIAARVHRNTIVKSESFVDEGIILEVVMNEKEYNKFKDFIFN” the protein production was “failed”. In the case of “MINIRSFRDLLRLFFIFKREVKITVLVTFIIIVLGAFLLPNRFESTALLLVKPGRDTSTLPIEIADRQAVVIPSAQRDPIIDEERILGGEPIARKVAEKYLDDLSRQPQPSGALATLKNAVKGAVEGIVDLLRGALQLVGLVEKQTPVERLTERMLKSFSVTHAAGSSVMEVSFTWNDPKVAQTVVKSWIEQYQQERAQTLGRKSLYAFYETESGATNQRILGYKKQIADYLNQLGAVSIEERLNDISRNLNNLKGEHLNTTRAVASTRSGLETIQKQLNSMKKEISIGRQMSLNPDRQDLQQRINAKQIERQEMLRTFKEGAPPVRAMDAAIANLQALLKSESGTVQRSENLAPNPVYTRLQNSFADQQASLSRLQTQAAQQETQLLKLEQERRQALAVEPELARLQRELSAAEKSFALYSDSTEKARIDRELDQSQISNIAVIEEATFKPSRVFPKSLSMLLAAIPLSLAVGLLALYFFYLLDQRIHDGDQIEERFGVKVWTSLQDLDSHLPQRNSAFTASLYRLYGILPLKQVALQGLVIGLTSARRGEGVSFVTAHLRDLLQERGHVVRVNGAPNAVPGEIVLLEASGFFSNQEAFVSLREADLIALIVEAETTTVPVLQNALSILTTAFKRVDGIIINRRRFGIPENVLNFLARIRSPH”, the protein production is reported as “failed”. With “MINLELFKEFLLNLIKDYGYFGIFLVGFSEPIFQPFPTEIFIIAGILLGLDWKLVWLISTIACNFGAVVTYYLAKKYGEKLMLKLFDEEKIKKGSHYLKKWGILGVIIASFTPIPFEVICWVCGSFEMPFERYMIAVFLSRLIRHGMVILPFVLKDHIHF” the protein production was “failed”. For “MINMTRKLYYEDAYLKEAKGRVLEIRDNAILLDQTIFYPTGGGQPHDRGTINGVEVLDVYKDEEGNVWHVVKEPEKFKVGDEVELKIDWDYRYKLMRIHTGLHLLEHVLNEVLGEGNWQLVGSGMSVEKGRYDIAYPENLNKYKEQIISLFNKYVDEGGEVKIWWEGDRRYTQIRDFEVIPCGGTHVKDIKEIGHIKKLKRSSIGRGKQRLEMWLE”, the protein production was “not failed”. With “MIPFDYIVEKTVSTGVLVDVIGALLEVGNLTEDYRGLKLPFKIMDQYKEVLQCEAHNDQALEFQRFFQRLTGPQNVIALVSWRLSGIYKLKTLSNDPISKVIANPDIPEVEEIRVVVY” the protein production was “failed”. In the case of “MIPGEILAVLVVVIPGVVNITYRLGIKKATIVGASADLVVAGLMYFLRPQTGFFYIQDSTMLFIIMVLSVYLLSAIYSTRYLKGIEVMGIREPTYYLLLNLFTASMLFSLEVNNYGLMWVGIEATTISSALLLITEKSETSLEATWRYIIIVSAGVTFAFISIILIYYTLGTLSVSTAIGSHVHSRIMVLAVSLALIGFGTKVGVFPVHTWLPDAHSEAPSPVSAMFSGVLLPTALYVLYRVYEIEPVRGLYVWFAVVSIVAASIFMGYQARYKRMFAYSTMENMNLALLGIAVGGSLGFTGALLLLLSHSFGKAGAFYSSGNILRFTGKKEIAEINGMHTSMPYTSTSLLMSSLAVTGAPPFGTFFGEFLILSGVLSLHMYVQFIIVIVFLAAAFISMNYNVTGMIFNGNCPNIEKDRLMPALSIFSSVIPLFIGIFFLVVYNEIL”, the protein production is reported as “failed”. In the case of “MIQLRPCPKSYTRDQDKATTPAETVRRVRERLASLDISILAETRRVDVGRLGIPVFLSVCGADARAVMPTRKQMGKGASLEQAQASALMELMERYSFFTFWRDMPGMVEATWSEARNRFGDALIPVDEILHSVHDTLSPDDAVRALDLWRWKFFPATDITHGREVWLPLDWFKKLGEFNGSSAGNTEEESILQGSCELVERHVCCLIDRTQPELPTIDPASLDDPVLLELAAAFERNGIRLVLKDFSMGMPVPTVGAIAWDPATFPERSEIVYTAGTSSSPVKAAIRAVTEVAQLAGDFCTGACYEASGLSKYESLDDIAWLVAGPVVALDTLPSVETDDIRDELAALCDGLAATGHTLYSVSTMNPDVGVNTHYNIVPGFHFRERDRNASLGLFIGRILSEEADAGTALAGLSVLEELYPGAHFLPFFKGMLALRAESHHEAISFFEQAEPLQPEADSRGLAAFYGAYVRTLLTDWQGALPGLDRAVTECPEMKEYFNLRGVCHFKLGDYAQAAQNFAQVLHIDKGAVVDLANLGLCHKFMGDTEKAEELLSAALEIDPGLDFARRHLDEMRQP”, the protein production is reported as “failed”. For “MIQMSSNDSSEVIRQCLQVLESITSDSSVPRNIRRSVNEIMDILNNESEPLFLRAASSISILEDISNDPNLPLHTRTLIWNLSSQLETIPVDE”, the protein production was “failed”. With “MIQTFFDFPVYFKFFIGLFALVNPVGIIPVFISMTSYQTAAARNKTNLTANLSVAIILWISLFLGDTILQLFGISIDSFRIAGGILVVTIAMSMISGKLGEDKQNKQEKSETAVRESIGVVPLALPLMAGPGAISSTIVWGTRYHSISYLFGFFVAIALFALCCWGLFRMAPWLVRVLRQTGINVITRIMGLLLMALGIEFIVTGIKGIFPGLLN” the protein production was “failed”. In the case of “MIRAYKFLLRPTVRQAQALAEMLRDHCSLYNAALQERRDAWRHPSKTTVKYGGQSAQLKDIRAFDPERQGRWSFSSQQATLRRLDKAFAAFFRRVKSGETPGYPRFRGVNWFDTVDFPKDGDGCRWNSTPHDPATRVRLQGVGHVKVNQHRPVAGRVKTVSVKREGRKWFVVLTAEQDQPEPLPATGSAAGIDLGIANFLADSGGGFVPNPRHGRRAADKLQAAQQALARFPRRKAKDRTANHRRAVGKVAQLHGKVRRQRLDHAHKTALGLVRAHDFIAHEDLRIRNMSKAPAPKPDPDKPGTFLPNGAAAKAGLNKSINDAGWGVFLTILHAKAESAGREVIAVDPRDTSRTCPECGHTAKENRPTQEKFHCVACGHHAHADTVAATNVLRAGLVRRNANPA”, the protein production is reported as “failed”. For “MIRDVNDNKKKKVDEILSIVKVSSLLFSAMAFLQYTFNLTKYNNKFLAYYSILSILISIFLLSTIYILWSLASLNKYKDHINKIQLIEIILFMIIFIMAILVSGGNSSNNKFLFLFIIITSTIQGGMHRGCVVSVVSSAIILAIDLIFSGNADVNIYFQNDLILAGVFVLTAWTLGFYVKTENDHIKELQTLVNEDGLTGVYNHRYFYDKLREKMHISEVENEKLSLIFMDIDYFKHYNDLYGHQKGDEALKKIGKLLKNIARENDLVARYGGEEFAIILPNTSEEEATKIAERIRNKVEKTYFEGQENQPNANFTVSVGIAVFPDKAKSELELVKCADDALYRAKFFHKNRVETYVSVLDELKRDLNEEENALVASIKTLISIINAKDKYTYSHVERVVIYSRLMAKKLGLSEDEKKQLIYGAYMHDIGKINIPNEILTKKMRLTKEEWEILKQHPKDGVEIIKSVNSLKNVVPLILYHHERYDGFGYPVGLKEKEIPYLARVLTVIDSFDAMTSSRPYNKRKTYDEGLIELERCSGTQFDPEIVGIFSEVVKENINEIQDF”, the protein production was “failed”. In the case of “MIRERSINLGHQVEGAIFTRHNHIVSVDGDGILSFQNNITKVKPNEAIFIPSKVMVRFSFNSNENKSIKVSLYHINGINLNCKQDKVTSLINAYIEVEKLNLTNRETIIELIGSRLEKIKNNRVLYNYDPLEKKIYRLVSKDLKKKWSLEEVCKLTYTSKSTLNRKLKDNQTSMGQIISNARLDYATILITNTSLSVDEISMLSGFNSTSYFCKKFKESHGFSPKQYRKLLAYNQVPLNRI”, the protein production is reported as “failed”. For “MIRHLLVAHDLTPEADVALARAAQLARQHDARVSLLHVYDPGLSASAVKTVSAMLQLKRKEAGLDEDSAIHLFRGQPIDGILQQTRALEPDLLLMGAHHQKTFERFGNTTLDQVVRRSRVPVLLAVREADEPYRQALSALDFSQCACTALRQAYRLLPVEADLHALHVFESPDDGVLGLPRQNAAHLATQAGLIEQLLSDEQERLPGVGPQLSHEVVPGVLPYSLDAALKQRQPELLALGRHSRNALMQALLGNLAQRYLRQPSCDVLVTS”, the protein production was “failed”. For “MIRHTVVFTLKHASHSLEEKRFLVDAKKILSAIRGVTHFEQLRQISPKIDYHFGFSMEFADQAAYTRYNDHPDHVAFVRDRWVPEVEKFLEIDYVPLGSVV”, the protein production was “not failed”. In the case of “MIRIGNLYVYLKNYIMKFTKLTIAFLSVFFCLVVACGSDGINDDPKTPDVTEPVTPNEPDEPDNPSVVKVPTLQKNVQDEWKIDSIDDGFIYYNYERYDDVSKAQQIVNVLEIDLLSNKYKVEFTYNNGDSLSTTAQVRGAIGGINGGYEQEAIYIRINGTNISEVTLPEGHLRYWKHDGALYSDGKSDIGIIYGGRNGKAAIDTYKQHSAKYLLASAPTLIDDYNPLGETFVGNYTMEQLESFDYEDYRRHQGVRHPRTVVAVTEDKDLLLVTIDGRWAGKAEGMSAKEVTLFLKKHFNPQYALNMDGGGSTTMYVKGKGAAKTDVVNYPTDNGVFNHYGQRRVTTHIIVKRK”, the protein production is reported as “failed”. For “MIRLILILINILFCHYLYALDCQKRLFDISINEKLSIQESLDELAKYCSFSIIVKDKIAKEKLETLQNSVNIHQMSLDEIFNFFIKEHDLSYDFDGKILRISGINTKIFKISYITSIREGQSITKASVDAKPRQSEYSGSFDDAEDNMIKSMEKFDFWQNIEKEIIVLLKNSHEDYEAKTPIINPNAGLIIVTGTNSQLKSVKNYLQKLENRLKKQVIIDVSILAVSLNESHSSGINWQNFNIGLNSQVNNENSFIQFQNGQGFVKNLGLRANLNFDSIINFLSQNGKTSVLSNPKLMALNNQQAIISVGDTINYQVKESSKGTENGTTVSESYNNYSIFVGILLNILPEISDDGKIMLRINPSLSDFKYPEDNKRQKEPRTIAPDTIQKKLSSVVQVENNQTLILGGLISHDKSNEKNSINFLSKIPILGSLFKGEVLNSKATEIVFIITPSIVDSVNAPSLKDLGFKHYELEHHHHHH”, the protein production was “failed”. With “MIRPARHIAAMSPYALAQLKAPAGKRLISLSQNESLRPPSRRAIEAAARAGDAGHLYPDPDWSALRAALSGLHGIPVEGILCGNGSMELIACLAQAFADERNAILAPAHGYPFFRSAAQMARARFDLAAERDRHVCVDAMLAAVQPDTRIVFVANPGNPTGTRIPRHELVRLREGLPDDTLLVIDEAYGEFADHLGEAMFDLVGRCDTVVLRTFSKAYGLAGMRVGWGLFPPEIARELRKVMNPNNIAVAGQLAATAALADQDYMVETCRQTAALRDGLRARLSKAGYDVPESFSNFVLIRMESPDDARRADEALRAEGVFLRPQGGVGLADSLRVTIGPAEKIDIAAGLLERWAEGKKT” the protein production was “failed”. With “MIRQKSIRRVKPPEDYQARLATPFAVLGLRTDEDWLTDIEYLPPDTPTLVPQTPLAREVCDQLQAYLADPGFVFDLSLHIGGTVHQRRVWQAIQDIPAGATRSYAAIAVELHSAPRAVGQACGANRLPIVIPCHRVIAKSGGLGGFMNASDGLPLTIKRWLLQHEGI” the protein production was “failed”. In the case of “MIRQLSLKDYEGVAGSALIDEIRSLGESLQGYNVRHINSTIIGGGVAEILSSLVPLMEDVGLTVNWEVLAGTTEFFHTTKLFHNGMHGQPVNITGEMLENYLAIAQKNQNLLDGDADLVVIHDQQPLGLTAFRGRTRGRWLWYCHVDPRYAVPEVWYFLAPMVATCDAAVFHLPEYARDLEHHHHHH”, the protein production is reported as “failed”.
